Biological target: Cys128 (UniProt position 128, FIDQHCSLMKV)
Assay: chemical modification (DTNB/Ellman labelling kinetics followed by UV-vis)
Conditions: room temperature; 150 mM NaCl; 50 mM citric acid, 50 mM HEPES, 50 mM Bicine, pH adjusted with NaOH or HCl; Free (reduced) thiol form of RitR, 5 μM protein with 20 μM DTNB, no DNA

For “RitR (Repressor of iron transport Regulator), orphan two-component-like response regulator (Streptococcus pneumoniae (strain R800, R6/D39 derivative))”, the pKa was 6.85.
